Laboratory results taken from publication PMC10989989, “The archaeal KEOPS complex possesses a functional Gon7 homolog and has an essential function independent of the cellular t^6A modification level” (mLife, 2023).

T1: His-tagged SisPcc1 co-expressed with no-tagged SisKae1 in E. coli (Saccharolobus islandicus REY15A, UniProt F0NF65 1-91)
T1 construct: Pcc1 of Saccharolobus islandicus REY15A, encoded by SiRe_1278; Pcc1 is insoluble when expressed alone in E. coli; also called His‐Pcc1; source: E. coli BL21(DE3)-Codon plus-RIL, pRSF-Duet1, co-expressed with no-tagged SisKae1; pulled down and co-purified (Ni-NTA, HiTrap Q FF, Superdex 200)
T1 sequence (looked up): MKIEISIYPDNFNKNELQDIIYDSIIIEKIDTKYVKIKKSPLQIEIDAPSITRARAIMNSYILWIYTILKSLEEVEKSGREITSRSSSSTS

T2: Kae1‐Pcc1 subcomplex (2Kae1:2Pcc1), co-expressed in E. coli (Saccharolobus islandicus REY15A, UniProt F0NFC9 1-331; F0NF65 1-91)
T2 construct: Kae1 of Saccharolobus islandicus REY15A, no tag; Pcc1 of Saccharolobus islandicus REY15A, encoded by SiRe_1278; The preformed complex (chains as m11 and m16) to which Pcc1-like was added; after addition the product is 1:1:1; also called 2Kae1:2Pcc1 subcomplex; Kae1‐Pcc1‐Pcc1‐Kae1; source: E. coli BL21(DE3)-Codon plus-RIL, pRSF-Duet1, no-tagged SisKae1 co-expressed with His-tagged SisPcc1; …
T2 sequence (looked up) 1: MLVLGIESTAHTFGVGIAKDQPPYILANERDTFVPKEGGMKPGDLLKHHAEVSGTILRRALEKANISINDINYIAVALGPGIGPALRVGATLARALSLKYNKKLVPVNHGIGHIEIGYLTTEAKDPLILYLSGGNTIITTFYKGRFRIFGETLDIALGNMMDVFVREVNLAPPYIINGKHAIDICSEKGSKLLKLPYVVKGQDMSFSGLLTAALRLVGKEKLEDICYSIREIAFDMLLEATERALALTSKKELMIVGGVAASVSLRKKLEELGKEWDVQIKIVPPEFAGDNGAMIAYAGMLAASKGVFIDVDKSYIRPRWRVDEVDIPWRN
T2 sequence (looked up) 2: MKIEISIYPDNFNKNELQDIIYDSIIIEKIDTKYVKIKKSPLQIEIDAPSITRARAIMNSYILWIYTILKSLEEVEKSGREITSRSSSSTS


Assays:
[1] = biological target: T1, His-tagged SisPcc1 co-expressed with …; experiment: SEC; co-expressed Kae1/Pcc1 subcomplex; Superdex 200 Increase 10/300; 200 mM NaCl, 50 mM Tris-HCl pH 8.0, 5% glycerol; masses from protein standards; settings: both partners purified
[2] = biological target: T2, Kae1‐Pcc1 subcomplex (2Kae1:2Pcc1), …; experiment: SEC; 1.5-fold Pcc1-like added to the 2Kae1:2Pcc1 subcomplex, 60°C for 30 min before loading; Superdex 200 Increase 10/300; 200 mM NaCl, 50 mM Tris-HCl pH 8.0, 5% glycerol; settings: both partners purified
[3] = biological target: SisKae1 mixed in five-fold excess with SisPcc1-like for SEC (Saccharolobus islandicus REY15A); experiment: SEC; Kae1 in five-fold excess: 6 μM SisPcc1-like mixed with 30 μM SisKae1, 60°C for 30 min before loading; Superdex 200 Increase 10/300; 200 mM NaCl, 50 mM Tris-HCl pH 8.0, 5% glycerol
[4] = biological target: Flag-tagged SisKae1 co-expressed with His-tagged SisPcc1-like in E. coli (Saccharolobus islandicus REY15A); experiment: SEC; co-expressed Kae1/Pcc1-like, Pcc1-like about 10-fold in excess of Kae1; Superdex 200 Increase 10/300; 200 mM NaCl, 50 mM Tris-HCl pH 8.0, 5% glycerol

Row | stoichiometry N [1] | stoichiometry N [2] | stoichiometry N (Pcc1-like per Kae1) [3] | stoichiometry N (Pcc1-like per Kae1) [4] | Binder
1 | 1 Kae1 per Pcc1 (printed as 2:2) | – | – | – | No-tagged SisKae1 from E. coli (natural protein, Saccharolobus islandicus REY15A, UniProt F0NFC9 1-331, looked up, Kae1 of Saccharolobus islandicus REY15A, no tag; Two vectors (pET15b alone; pRSF-Duet1 with His-Pcc1) give the same untagged protein; source: E. coli BL21(DE3)-Codon plus-RIL; alone (pET15b), purified; also co-expressed with His-tagged SisPcc1 (pRSF-Duet1), pulled down and co-purified) MLVLGIESTAHTFGVGIAKDQPPYILANERDTFVPKEGGMKPGDLLKHHAEVSGTILRRALEKANISINDINYIAVALGPGIGPALRVGATLARALSLKYNKKLVPVNHGIGHIEIGYLTTEAKDPLILYLSGGNTIITTFYKGRFRIFGETLDIALGNMMDVFVREVNLAPPYIINGKHAIDICSEKGSKLLKLPYVVKGQDMSFSGLLTAALRLVGKEKLEDICYSIREIAFDMLLEATERALALTSKKELMIVGGVAASVSLRKKLEELGKEWDVQIKIVPPEFAGDNGAMIAYAGMLAASKGVFIDVDKSYIRPRWRVDEVDIPWRN
2 | – | 1 Kae1:Pcc1:Pcc1-like 1:1:1 | 1 | 2 | His-tagged SisPcc1‐like from E. coli (natural protein, Saccharolobus islandicus REY15A, UniProt F0NIH8 1-81, looked up, Pcc1-like (Gon7-like) of Saccharolobus islandicus REY15A, encoded by SiRe_1701; also called His‐SisPcc1‐like; source: E. coli BL21(DE3)-Codon plus-RIL, pRSF-Duet1 (alone, or co-expressed with Flag-tagged SisKae1 or SisPcc1); purified (Ni-NTA, HiTrap Q FF, Superdex 200)) MIELRILSEHEDAELIIRSLNVDNVNLPEGMSIQTKVEGKELEIVIKMRITKPNDLMTVRNTADEILAHIKALQSSFDAIS
